B1: Rho guanine nucleotide exchange factor 7 (Homo sapiens), Q14155 (parent)
chain: MNSAEQTVTWLITLGVLESPKKTISDPEGFLQASLKDGVVLCRLLERLLPGTIEKVYPEPRSESECLSNIREFLRGCGASLRLELLFPPSQPPQHLVTTILLSASTFDANDLYQGQNFNKVLSSLVTLNKVTADIGLGSDSVCARPSSHRIKSFDSLGSQSLHTRTSKLFQGQYRSLDMTDNSNNQLVVRAKFNFQQTNEDELSFSKGDVIHVTRVEEGGWWEGTLNGRTGWFPSNYVREVKASEKPVSPKSGTLKSPPKGFDTTAINKSYYNVVLQNILETENEYSKELQTVLSTYLRPLQTSEKLSSANISYLMGNLEEICSFQQMLVQSLEECTKLPEAQQRVGGCFLNLMPQMKTLYLTYCANHPSAVNVLTEHSEELGEFMETKGASSPGILVLTTGLSKPFMRLDKYPTLLKELERHMEDYHTDRQDIQKSMAAFKNLSAQCQEVRKRKELELQILTEAIRNWEGDDIKTLGNVTYMSQVLIQCAGSEEKNERYLLLFPNVLLMLSASPRMSGFIYQGKLPTTGMTITKLEDSENHRNAFEISGSMIERILVSCNNQQDLQEWVEHLQKQTKVTSVGNPTIKPHSVPSHTLPSHPVTPSSKHADSKPAPLTPAYHTLPHPSHHGTPHTTINWGPLEPPKTPKPWSLSCLRPAPPLRPSAALCYKEDLSKSPKTMKKLLPKRKPERKPSDEEFASRKSTAALEEDAQILKVIEAYCTSAKTRQTLNSTWQGTDLMHNHVLADDDQPSLDSLGRRSSLSRLEPSDLSEDSDYDSIWTAHSYRMGSTSRKSCCSYISHQN

Variants of: B1
Conditions: with rac1_human RAC1, P63000

Variant | effect of a mutation on the interaction
P340E | increasing interaction

From IntAct's records for PubMed 24792722
